According to patent publication US20220218785A1 (ALPINE IMMUNE SCIENCES, published 2022):

T1: human ICOS (human, UniProt Q9Y6W8 21-199)
T1 construct: whole, on cells
T1 sequence (looked up): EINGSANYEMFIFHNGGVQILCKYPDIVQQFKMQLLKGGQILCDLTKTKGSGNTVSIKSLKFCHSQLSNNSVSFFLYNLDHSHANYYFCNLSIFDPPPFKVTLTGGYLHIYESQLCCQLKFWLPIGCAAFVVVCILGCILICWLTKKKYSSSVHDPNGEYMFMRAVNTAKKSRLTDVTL


Tests used:
human CD28 [1] = target: T2, human CD28 (human, UniProt P10747 19-220); experiment: flow cytometry, cells with human CD28; protein from CHO
T2 construct: whole, on cells

human CD28 [2] = target: T2, human CD28; experiment: flow cytometry, cells with human CD28; protein from 293
human CTLA-4 [3] = target: T3, human CTLA-4 (human, UniProt P16410 36-223); experiment: flow cytometry, cells with human CTLA-4; protein from 293
T3 construct: whole, on cells

human CTLA-4 [4] = target: T3, human CTLA-4; experiment: flow cytometry, cells with human CTLA-4; protein from CHO
human ICOS [5] = target: T1, human ICOS; experiment: flow cytometry, cells with human ICOS; protein from CHO
human ICOS [6] = target: T1, human ICOS; experiment: flow cytometry, cells with human ICOS; protein from 293
human ICOS [7] = target: T1, human ICOS; experiment: flow cytometry, Expi293 cells with human ICOS
Procedure: Binding studies were carried out on transfected HEK293 cells generated to express the full-length mammalian (human) surface ligands, CD28, ICOS or CTLA-4, using a transient transfection system (Life Technologies, USA). As a control, binding to mock (non-transfected) cells also was assessed. For staining by flow cytometry, 200,000 cells of appropriate transient transfection or negative control (mock) were plated in 96 well round bottom plates, and, then incubated in staining buffer (PBS, phosphate buffered saline; 1% BSA, bovine serum albumin; and 0.1% sodium azide) for 20 minutes to block non-specific binding. Cells were resuspended in staining buffer containing 100 nM to 1 nM variant immunomodulatory protein in 50 μL. Mean Fluorescence Intensity (MFI) was calculated for each transfectant and negative parental line with Cell Quest Pro software (Becton Dickinson, USA) or a Hypercyt flow cytometer (Intellicyte, USA).
(§1) Expi293 cells transfected with cognate binding partners, human CD28, ICOS and CTLA4, were used as target cells in binding studies.

human CTLA-4 [8] = target: T3, human CTLA-4; experiment: flow cytometry, Expi293 cells with human CTLA-4
From the text: as §1

human CD28 [9] = target: T2, human CD28; experiment: flow cytometry, Expi293 cells with human CD28
From the text: as §1

T3 sequence (P16410 36-223): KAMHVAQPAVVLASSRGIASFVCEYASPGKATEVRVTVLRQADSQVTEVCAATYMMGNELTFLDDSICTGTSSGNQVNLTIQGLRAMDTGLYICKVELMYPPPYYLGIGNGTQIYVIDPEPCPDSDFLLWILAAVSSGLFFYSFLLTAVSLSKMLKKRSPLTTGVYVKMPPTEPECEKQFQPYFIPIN

| Binder | MFI (ΔWT) (human ICOS [7]) [fold vs WT] | MFI (ΔWT) (human CTLA-4 [8]) [fold vs WT] | MFI (ΔWT) (human CD28 [9]) [fold vs WT] | other results |
| --- | --- | --- | --- | --- |
| ICOSL ECD Truncation #7 with N52H/N57Y/Q100R/F172S, Fc fusion (Fc fusion) DTQEKEVRAMVGSDVELSCACPEGSRFDLNDVYVYWQTSESKTVVTYHIPQHSSLEYVDSRYRNRALMSPAGMLRGDFSLRLFNVTPQDEQKFHCLVLSRSLGFQEVLSVEVTLHVAANFSVPVVSAPHSPSQDELTFTCTSINGYPRPNVYWINKTDNSLLDQALQNDTVSLNMRGLYDVVSVLRIARTPSVNIGCCIENGGGGSGGGGSEPKSSDKTHTCPPCPAPEAEGAPSVFLFPPKPKDTLMISRTPEVTCVVVDVSHEDPEVKFNWYVDGVEVHNAKTKPREEQYNSTYRVVSVLTVLHQDWLNGKEYKCKVSNKALPAPIEKTISKAKGQPREPQVYTLPPSREEMTKNQVSLTCLVKGFYPSDIAVEWESNGQPENNYKTTPPVLDSDGSFFLYSKLTVDKSRWQQGNVFSCSVMHEALHNHYTQKSLSLSPG | – | – | – | MFI (ΔWT) (human CD28 [1]): 3.7 fold vs WT; MFI (ΔWT) (human CD28 [2]): 3.4 fold vs WT; MFI (ΔWT) (human CTLA-4 [3]): 0.8 fold vs WT; MFI (ΔWT) (human CTLA-4 [4]): 0.7 fold vs WT; MFI (ΔWT) (human ICOS [5]): 0.7 fold vs WT; MFI (ΔWT) (human ICOS [6]): 0.7 fold vs WT |
| ICOSL ECD with N52H/N57Y/Q100R/C198R, Fc C220S/L234A/L235E/G237A (SEQ ID NO: 40) (Fc fusion, not shown: small tags and cut ends) chain (part 1 of 2): DTQEKEVRAMVGSDVELSCACPEGSRFDLNDVYVYWQTSESKTVVTYHIPQHSSLEYVDSRYRNRALMSPAGMLRGDFSLRLFNVTPQDEQKFHCLVLSRSLGFQEVLSVEVTLHVAANFSVPVVSAPHSPSQDELTFTCTSINGYPRPNVYWINKTDNSLLDQALQNDTVFLNMRGLYDVVSVLRIARTPSVNIGCRIENVLLQQNLTVGSQTGNDIGERDKITENPVSTGEKNAAT chain (part 2 of 2): EPKSSDKTHTCPPCPAPEAEGAPSVFLFPPKPKDTLMISRTPEVTCVVVDVSHEDPEVKFNWYVDGVEVHNAKTKPREEQYNSTYRVVSVLTVLHQDWLNGKEYKCKVSNKALPAPIEKTISKAKGQPREPQVYTLPPSREEMTKNQVSLTCLVKGFYPSDIAVEWESNGQPENNYKTTPPVLDSDGSFFLYSKLTVDKSRWQQGNVFSCSVMHEALHNHYTQKSLSLSPGK | – | – | – | MFI (human CTLA-4 [3]): 8720 MFI; MFI (ΔWT) (human CTLA-4 [3]): 0.7 fold vs WT; MFI (human CTLA-4 [4]): 8750 MFI; MFI (ΔWT) (human CTLA-4 [4]): 0.7 fold vs WT; MFI (human ICOS [5]): 7700 MFI; MFI (ΔWT) (human ICOS [5]): 0.7 fold vs WT |
| variant ICOSL ECD-Fc N52H/N57Y/Q100R/F172S, AAA linker, Fc C220S/E233P/L234V/L235A/G236del/S267K (SEQ ID NO: 44) (Fc fusion, Made in 293 cells; Fc or allotypes thereof) DTQEKEVRAMVGSDVELSCACPEGSRFDLNDVYVYWQTSESKTVVTYHIPQHSSLEYVDSRYRNRALMSPAGMLRGDFSLRLFNVTPQDEQKFHCLVLSRSLGFQEVLSVEVTLHVAANFSVPVVSAPHSPSQDELTFTCTSINGYPRPNVYWINKTDNSLLDQALQNDTVSLNMRGLYDVVSVLRIARTPSVNIGCCIENVLLQQNLTVGSQTGNDIGERDKITENPVSTGEKNAATAAAEPKSSDKTHTCPPCPAPPVAGPSVFLFPPKPKDTLMISRTPEVTCVVVDVKHEDPEVKFNWYVDGVEVHNAKTKPREEQYNSTYRVVSVLTVLHQDWLNGKEYKCKVSNKALPAPIEKTISKAKGQPREPQVYTLPPSREEMTKNQVSLTCLVKGFYPSDIAVEWESNGQPENNYKTTPPVLDSDGSFFLYSKLTVDKSRWQQGNVFSCSVMHEALHNHYTQKSLSLSPGK | 1.3 | 20.5 | 10.9 | – |
| variant ICOSL ECD-Fc N52H/N57Y/Q100R/F172S, G4S linker, Fc C220S/L234A/L235E/G237A (SEQ ID NO: 40) (Fc fusion, Made in 293 cells; Fc or allotypes thereof) DTQEKEVRAMVGSDVELSCACPEGSRFDLNDVYVYWQTSESKTVVTYHIPQHSSLEYVDSRYRNRALMSPAGMLRGDFSLRLFNVTPQDEQKFHCLVLSRSLGFQEVLSVEVTLHVAANFSVPVVSAPHSPSQDELTFTCTSINGYPRPNVYWINKTDNSLLDQALQNDTVSLNMRGLYDVVSVLRIARTPSVNIGCCIENVLLQQNLTVGSQTGNDIGERDKITENPVSTGEKNAATGGGGSEPKSSDKTHTCPPCPAPEAEGAPSVFLFPPKPKDTLMISRTPEVTCVVVDVSHEDPEVKFNWYVDGVEVHNAKTKPREEQYNSTYRVVSVLTVLHQDWLNGKEYKCKVSNKALPAPIEKTISKAKGQPREPQVYTLPPSREEMTKNQVSLTCLVKGFYPSDIAVEWESNGQPENNYKTTPPVLDSDGSFFLYSKLTVDKSRWQQGNVFSCSVMHEALHNHYTQKSLSLSPGK | 1.4 | 22.7 | 12.9 | – |

More lines, main results first:

| MFI (ΔWT) (human ICOS [7]) [fold vs WT] | MFI (ΔWT) (human CTLA-4 [8]) [fold vs WT] | MFI (ΔWT) (human CD28 [9]) [fold vs WT] | Binder | other results |
| --- | --- | --- | --- | --- |
| 1.2 | 18.2 | 13.1 | variant ICOSL ECD-Fc N52H/N57Y/Q100P, AAA linker, Fc C220S/L234A/L235E/G237A (SEQ ID NO: 40) (Fc fusion, Made in 293 cells; Fc or allotypes thereof) DTQEKEVRAMVGSDVELSCACPEGSRFDLNDVYVYWQTSESKTVVTYHIPQHSSLEYVDSRYRNRALMSPAGMLRGDFSLRLFNVTPQDEQKFHCLVLSPSLGFQEVLSVEVTLHVAANFSVPVVSAPHSPSQDELTFTCTSINGYPRPNVYWINKTDNSLLDQALQNDTVFLNMRGLYDVVSVLRIARTPSVNIGCCIENVLLQQNLTVGSQTGNDIGERDKITENPVSTGEKNAATAAAEPKSSDKTHTCPPCPAPEAEGAPSVFLFPPKPKDTLMISRTPEVTCVVVDVSHEDPEVKFNWYVDGVEVHNAKTKPREEQYNSTYRVVSVLTVLHQDWLNGKEYKCKVSNKALPAPIEKTISKAKGQPREPQVYTLPPSREEMTKNQVSLTCLVKGFYPSDIAVEWESNGQPENNYKTTPPVLDSDGSFFLYSKLTVDKSRWQQGNVFSCSVMHEALHNHYTQKSLSLSPGK | – |
| 1.3 | 20.6 | 12.5 | variant ICOSL ECD-Fc N52H/N57Y/Q100R/F172S, AAA linker, Fc C220S/L234A/L235E/G237A (SEQ ID NO: 40) (Fc fusion, Made in 293 cells; Fc or allotypes thereof) DTQEKEVRAMVGSDVELSCACPEGSRFDLNDVYVYWQTSESKTVVTYHIPQHSSLEYVDSRYRNRALMSPAGMLRGDFSLRLFNVTPQDEQKFHCLVLSRSLGFQEVLSVEVTLHVAANFSVPVVSAPHSPSQDELTFTCTSINGYPRPNVYWINKTDNSLLDQALQNDTVSLNMRGLYDVVSVLRIARTPSVNIGCCIENVLLQQNLTVGSQTGNDIGERDKITENPVSTGEKNAATAAAEPKSSDKTHTCPPCPAPEAEGAPSVFLFPPKPKDTLMISRTPEVTCVVVDVSHEDPEVKFNWYVDGVEVHNAKTKPREEQYNSTYRVVSVLTVLHQDWLNGKEYKCKVSNKALPAPIEKTISKAKGQPREPQVYTLPPSREEMTKNQVSLTCLVKGFYPSDIAVEWESNGQPENNYKTTPPVLDSDGSFFLYSKLTVDKSRWQQGNVFSCSVMHEALHNHYTQKSLSLSPGK | – |
| 1.3 | 33.5 | 13.3 | variant ICOSL ECD-Fc N52H/N57Y/Q100P, AAA linker, Fc C220S/E233P/L234V/L235A/G236del/S267K (SEQ ID NO: 44) (Fc fusion, Made in 293 cells; Fc or allotypes thereof) DTQEKEVRAMVGSDVELSCACPEGSRFDLNDVYVYWQTSESKTVVTYHIPQHSSLEYVDSRYRNRALMSPAGMLRGDFSLRLFNVTPQDEQKFHCLVLSPSLGFQEVLSVEVTLHVAANFSVPVVSAPHSPSQDELTFTCTSINGYPRPNVYWINKTDNSLLDQALQNDTVFLNMRGLYDVVSVLRIARTPSVNIGCCIENVLLQQNLTVGSQTGNDIGERDKITENPVSTGEKNAATAAAEPKSSDKTHTCPPCPAPPVAGPSVFLFPPKPKDTLMISRTPEVTCVVVDVKHEDPEVKFNWYVDGVEVHNAKTKPREEQYNSTYRVVSVLTVLHQDWLNGKEYKCKVSNKALPAPIEKTISKAKGQPREPQVYTLPPSREEMTKNQVSLTCLVKGFYPSDIAVEWESNGQPENNYKTTPPVLDSDGSFFLYSKLTVDKSRWQQGNVFSCSVMHEALHNHYTQKSLSLSPGK | – |
| 1.3 | 17.1 | 13.4 | variant ICOSL ECD-Fc N52H/N57Y/Q100P, G4S linker, Fc C220S/L234A/L235E/G237A (SEQ ID NO: 40) (Fc fusion, Made in 293 cells; Fc or allotypes thereof) DTQEKEVRAMVGSDVELSCACPEGSRFDLNDVYVYWQTSESKTVVTYHIPQHSSLEYVDSRYRNRALMSPAGMLRGDFSLRLFNVTPQDEQKFHCLVLSPSLGFQEVLSVEVTLHVAANFSVPVVSAPHSPSQDELTFTCTSINGYPRPNVYWINKTDNSLLDQALQNDTVFLNMRGLYDVVSVLRIARTPSVNIGCCIENVLLQQNLTVGSQTGNDIGERDKITENPVSTGEKNAATGGGGSEPKSSDKTHTCPPCPAPEAEGAPSVFLFPPKPKDTLMISRTPEVTCVVVDVSHEDPEVKFNWYVDGVEVHNAKTKPREEQYNSTYRVVSVLTVLHQDWLNGKEYKCKVSNKALPAPIEKTISKAKGQPREPQVYTLPPSREEMTKNQVSLTCLVKGFYPSDIAVEWESNGQPENNYKTTPPVLDSDGSFFLYSKLTVDKSRWQQGNVFSCSVMHEALHNHYTQKSLSLSPGK | – |
